Measurements reported in article PMC11861898 (Communications Biology, 2025).

What was measured:
[1] = target: T1, human CIB2 1-187 (calcium- and integrin-binding protein 2), wild type (human, UniProt O75838 1-187); assay: ITC
T1 sequence: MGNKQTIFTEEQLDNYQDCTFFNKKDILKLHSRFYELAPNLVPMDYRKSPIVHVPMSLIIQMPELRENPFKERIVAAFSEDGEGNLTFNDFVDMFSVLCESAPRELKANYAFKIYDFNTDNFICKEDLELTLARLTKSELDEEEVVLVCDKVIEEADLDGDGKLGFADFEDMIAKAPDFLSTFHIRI

human CIB2 1-187 F21Q = target: T2, human CIB2 1-187 F21Q (human, UniProt O75838 1-187, F21Q); assay: ITC + SEC
T2 sequence: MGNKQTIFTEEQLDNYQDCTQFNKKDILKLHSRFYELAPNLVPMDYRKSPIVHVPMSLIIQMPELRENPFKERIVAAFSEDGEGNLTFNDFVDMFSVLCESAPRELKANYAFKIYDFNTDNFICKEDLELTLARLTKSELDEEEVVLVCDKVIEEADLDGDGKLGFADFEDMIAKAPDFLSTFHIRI

human CIB2 1-187 E11R = target: T3, human CIB2 1-187 E11R (human, UniProt O75838 1-187, E11R); assay: ITC + SEC
T3 sequence: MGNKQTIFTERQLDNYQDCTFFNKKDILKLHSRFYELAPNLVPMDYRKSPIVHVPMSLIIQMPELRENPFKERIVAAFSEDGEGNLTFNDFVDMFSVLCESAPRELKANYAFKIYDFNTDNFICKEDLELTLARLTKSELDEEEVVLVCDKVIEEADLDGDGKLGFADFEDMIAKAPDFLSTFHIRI

[2] = target: T1, human CIB2 1-187 (calcium- and …); assay: SEC-MALS
[3] = target: T4, human CIB2 R186W (deafness-related variant) (human, UniProt O75838 1-187, R186W); assay: ITC
T4 sequence: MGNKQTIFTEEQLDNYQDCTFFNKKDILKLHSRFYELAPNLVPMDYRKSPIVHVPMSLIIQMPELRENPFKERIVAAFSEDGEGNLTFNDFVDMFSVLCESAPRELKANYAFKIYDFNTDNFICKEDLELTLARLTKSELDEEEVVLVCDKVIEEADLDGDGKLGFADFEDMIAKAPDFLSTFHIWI

[4] = target: T5, human CIB2 R66W (deafness-related variant) (human, UniProt O75838 1-187, R66W); assay: ITC
T5 sequence: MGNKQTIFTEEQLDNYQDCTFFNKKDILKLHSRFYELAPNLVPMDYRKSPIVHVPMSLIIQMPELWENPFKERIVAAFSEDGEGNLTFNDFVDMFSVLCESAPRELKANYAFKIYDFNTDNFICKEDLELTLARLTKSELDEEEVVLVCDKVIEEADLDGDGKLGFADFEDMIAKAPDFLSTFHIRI

[5] = target: T6, human CIB2 1-187 D127A/D168A (EF-hand double mutant) (human, UniProt O75838 1-187, D127A | D168A); assay: ITC
T6 sequence: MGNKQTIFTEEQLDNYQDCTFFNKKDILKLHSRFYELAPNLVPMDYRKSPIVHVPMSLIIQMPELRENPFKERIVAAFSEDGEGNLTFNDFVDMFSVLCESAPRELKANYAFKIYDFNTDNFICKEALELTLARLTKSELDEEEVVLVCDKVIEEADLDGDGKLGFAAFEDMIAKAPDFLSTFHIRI

[6] = target: T7, human CIB2 I123T (deafness-related variant) (human, UniProt O75838 1-187, I123T); assay: ITC
T7 sequence: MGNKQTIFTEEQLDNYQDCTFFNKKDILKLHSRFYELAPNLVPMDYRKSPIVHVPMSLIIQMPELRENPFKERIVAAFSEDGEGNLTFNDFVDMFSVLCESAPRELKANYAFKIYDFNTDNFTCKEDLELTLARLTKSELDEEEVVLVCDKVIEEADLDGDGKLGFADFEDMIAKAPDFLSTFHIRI

[7] = target: T8, human CIB2 E64D (deafness-related variant) (human, UniProt O75838 1-187, E64D); assay: ITC
T8 sequence: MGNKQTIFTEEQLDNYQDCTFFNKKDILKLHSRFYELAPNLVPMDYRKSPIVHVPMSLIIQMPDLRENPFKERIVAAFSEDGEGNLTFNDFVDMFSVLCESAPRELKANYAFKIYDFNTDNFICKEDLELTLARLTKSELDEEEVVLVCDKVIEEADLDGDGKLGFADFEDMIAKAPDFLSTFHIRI

mouse CIB3 = target: T9, mouse CIB3 (mouse, UniProt A0A5F8MPX9 1-187); assay: ITC
T9 sequence: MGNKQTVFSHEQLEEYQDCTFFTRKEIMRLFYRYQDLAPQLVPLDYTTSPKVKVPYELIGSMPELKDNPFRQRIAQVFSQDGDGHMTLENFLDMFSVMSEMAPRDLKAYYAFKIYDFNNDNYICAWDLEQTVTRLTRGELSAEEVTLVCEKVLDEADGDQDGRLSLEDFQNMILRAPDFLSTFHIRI

[8] = target: T10, human CIB2 Y115C (deafness-related variant) (human, UniProt O75838 1-187, Y115C); assay: ITC
T10 sequence: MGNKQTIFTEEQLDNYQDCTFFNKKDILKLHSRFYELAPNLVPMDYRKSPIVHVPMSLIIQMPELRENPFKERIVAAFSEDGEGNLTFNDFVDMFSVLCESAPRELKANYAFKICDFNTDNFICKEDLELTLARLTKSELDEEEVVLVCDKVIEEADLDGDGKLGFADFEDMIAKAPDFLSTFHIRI

[9] = target: T11, human CIB2 1-187 Q17A/T20A (human, UniProt O75838 1-187, Q17A | T20A); assay: ITC
T11 sequence: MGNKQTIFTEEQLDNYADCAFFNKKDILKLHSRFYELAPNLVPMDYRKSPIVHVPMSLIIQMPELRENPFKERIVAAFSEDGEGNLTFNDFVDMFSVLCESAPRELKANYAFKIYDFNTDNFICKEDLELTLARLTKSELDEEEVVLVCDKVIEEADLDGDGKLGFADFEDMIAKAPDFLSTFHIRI

[10] = target: T4, human CIB2 R186W (deafness-related …); assay: pull-down
[11] = target: T5, human CIB2 R66W (deafness-related …); assay: pull-down
[12] = target: T7, human CIB2 I123T (deafness-related …); assay: pull-down
[13] = target: T8, human CIB2 E64D (deafness-related …); assay: pull-down
[14] = target: T10, human CIB2 Y115C (deafness-related …); assay: pull-down
[15] = target: T1, human CIB2 1-187 (calcium- and …); assay: ITC + SEC
[16] = target: T12, human CIB2 F91S (deafness-related variant) (human, UniProt O75838 1-187, F91S); assay: pull-down
T12 sequence: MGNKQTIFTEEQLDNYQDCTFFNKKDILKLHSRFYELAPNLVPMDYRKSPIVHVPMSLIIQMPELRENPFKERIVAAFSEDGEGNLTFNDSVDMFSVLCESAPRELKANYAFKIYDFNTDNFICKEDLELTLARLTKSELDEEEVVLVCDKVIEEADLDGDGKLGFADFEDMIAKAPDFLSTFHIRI

[17] = target: T12, human CIB2 F91S (deafness-related …); assay: ITC

B1: human TMC2 CBD-1 (aa 150-200) (domain or fragment)
chain: EEELAQILEQVEEKKKLIATMRSKPWPMAKKLTELREAQEFVEKYEGALGK
B1 was tested, and the Kd [1] was ~600 nM.

B2: human TMC1 CBD-1 (CIB binding domain-1), residues 86-136 (domain or fragment)
chain: EEELERLKAELDEKRQIIATVKCKPWKMEKKIEVLKEAKKFVSENEGALGK
In the case of B2, the binding result (human CIB2 1-187 F21Q) is reported as “binds”, the binding result (human CIB2 1-187 E11R) is reported as “binds” and the “stoichiometry N” value [2] is reported as 1. B2: binds [3]; binds [4]; binds [5]. B2: binds [6]; binds [7]; binds (mouse CIB3). For the same binder, the binding result [8] was “binds”, the “fold decrease in binding affinity against wild-type CIB2” value [9] was > 15 fold and the Kd [1] was ~300 nM.

B3: GST-tagged human TMC1 CBD-1 (86-136) (domain or fragment)
chain: EEELERLKAELDEKRQIIATVKCKPWKMEKKIEVLKEAKKFVSENEGALGK
B3: binds [10]; binds [11]; binds [12]. B3: binds [13]; binds [14].

B4: human TMC1 CBD-1 (86-136) K107A (domain or fragment)
chain: EEELERLKAELDEKRQIIATVACKPWKMEKKIEVLKEAKKFVSENEGALGK
B4: binds [15].

B5: GST-tagged human TMC1 CBD-2 (298-359) (domain or fragment)
chain: KNIGDDGGGDDNTFNFSWKVFTSWDYLIGNPETADNKFNSITMNFKEAITEEKAAQVEENVH
B5: binds [10]; binds [11]; binds [16].

B6: human TMC1 CBD-1 (86-136) K121E (domain or fragment)
chain: EEELERLKAELDEKRQIIATVKCKPWKMEKKIEVLEEAKKFVSENEGALGK
B6: binds [15].

In the case of ELDEKRQIIATVKCKPWKMEKKIEVLKEAKKFVSENEGALGK (domain or fragment) [human TMC1 fragment 95-136], the Kd [1] is reported as ~4600 nM.

B7: human TMC1 CBD-2, amino acids 298-359 (first cytoplasmic loop between TM domains 2 and 3) (domain or fragment)
chain: KNIGDDGGGDDNTFNFSWKVFTSWDYLIGNPETADNKFNSITMNFKEAITEEKAAQVEENVH
B7: binds [3]; binds [4]; binds [17].

B8: human TMC2 CBD-2 (aa 363-424) (domain or fragment)
chain: NTQGSTGEGESDNFTFSFKMFTSWDYLIGNSETADNKYASITTSFKESIVDEQESNKEENIH
B8: binds [1].
